For experiment [1], the target named is actin from rabbit skeletal muscle (rabbit) (UniProt P68135).
Experiment [2] deals with (Ig32)2-(R3^IVVI)-(Ig32)2 polyprotein, talin R3 domain with the IVVI mutation. As to the kind of experiment: single-molecule magnetic tweezers; talin R3 polyprotein tethered between glass and bead; vinculin allowed to bind at 8.5 pN for a variable time, then a 40 pN pulse to force dissociation; unbinding times at 40 pN (square-root histogram); PBS with 10 mM ascorbic acid, pH 7.3.

Experiment [3] has the same target. Put plainly: single-molecule magnetic tweezers; talin R3 polyprotein tethered between glass (HaloTag) and streptavidin-coated bead (biotinylated AviTag); vinculin in solution (20 nM FLV); constant low force (~8.5 pN, up to ~9-10 pN); PBS with 10 mM ascorbic acid, pH 7.3; Kd from the paper's kinetic model.
Experiment [4] has the same target. Put plainly: single-molecule magnetic tweezers; talin R3 polyprotein tethered between glass and bead; vinculin in solution (20 nM FLV); constant higher forces (12.5 pN, 15 pN; above ~10 pN), reversible binding and unbinding steps; unbinding rates against force fitted to the Bell-Evans model; PBS with 10 mM ascorbic acid, pH 7.3.
The target is the same in experiment [5]. Put plainly: magnetic tweezers. Conditions: parent: est. 9 s, read off a plot.

Sequence of full-length human vinculin, wild type (P18206 other isoform, or with tags, fused parts or gaps): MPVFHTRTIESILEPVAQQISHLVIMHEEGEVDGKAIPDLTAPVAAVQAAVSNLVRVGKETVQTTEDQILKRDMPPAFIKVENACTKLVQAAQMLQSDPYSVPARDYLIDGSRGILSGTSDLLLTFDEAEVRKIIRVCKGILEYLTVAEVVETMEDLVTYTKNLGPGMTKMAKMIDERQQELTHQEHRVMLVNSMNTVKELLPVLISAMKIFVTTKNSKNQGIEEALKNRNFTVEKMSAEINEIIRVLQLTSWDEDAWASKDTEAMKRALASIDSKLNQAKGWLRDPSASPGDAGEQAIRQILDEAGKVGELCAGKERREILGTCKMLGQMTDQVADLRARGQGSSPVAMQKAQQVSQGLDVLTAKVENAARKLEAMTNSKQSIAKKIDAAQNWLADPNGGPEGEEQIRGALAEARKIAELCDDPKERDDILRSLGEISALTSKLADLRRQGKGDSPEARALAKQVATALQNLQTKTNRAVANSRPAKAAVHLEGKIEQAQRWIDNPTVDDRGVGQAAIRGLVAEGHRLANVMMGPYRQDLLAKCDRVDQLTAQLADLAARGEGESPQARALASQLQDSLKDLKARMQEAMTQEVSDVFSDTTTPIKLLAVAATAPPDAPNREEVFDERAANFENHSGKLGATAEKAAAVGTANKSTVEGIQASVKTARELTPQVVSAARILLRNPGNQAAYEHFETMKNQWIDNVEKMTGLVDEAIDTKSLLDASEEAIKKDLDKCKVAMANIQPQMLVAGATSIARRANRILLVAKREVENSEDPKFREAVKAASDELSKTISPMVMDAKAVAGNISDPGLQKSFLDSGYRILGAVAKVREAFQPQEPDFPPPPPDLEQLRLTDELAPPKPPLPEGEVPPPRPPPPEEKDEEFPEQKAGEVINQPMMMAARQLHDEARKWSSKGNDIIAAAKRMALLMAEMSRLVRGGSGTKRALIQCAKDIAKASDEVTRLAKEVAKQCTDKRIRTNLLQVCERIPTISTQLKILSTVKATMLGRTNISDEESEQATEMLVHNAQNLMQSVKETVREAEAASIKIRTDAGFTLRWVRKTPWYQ

“full-length human vinculin K944A-R945A-D1013A-E1015A-E986A (5M) (from UniProt P18206-2 1-1066) (natural protein)”: the ratio of bundled actin of 5M against that of the 4M variant, TIRF microscopy, no talin-VBS1 in experiment [1] is 1.4 fold over 4M.

Turning to “full-length human vinculin, wild type (from UniProt P18206-2 1-1066) (natural protein)”, in experiment [2], the timescale of maturation from the weak to the stable bound state is 37 s; the unbinding time at 40 pN, stronger binding mode (t2) came to 7.4 s; the unbinding time at 40 pN, weak binding mode (t1) is 0.4 s. Also, in experiment [3], the Kd, initial bound state, low forces (up to ~9-10 pN) came out at 0.2 nM; the Kd, mature bound state, low forces (up to ~9-10 pN) is 4 pM; the timescale of unbinding at ~8.5 pN stood at 1 hour. In addition, in experiment [4], the Kd, forces above ~10 pN is 5 nM; the k0, intrinsic off-rate (Bell-Evans fit of the unbinding rates, zero force) came to 0.0066 s⁻¹; the unbinding rate of Fig. 1G extrapolated to ~8.5 pN was 0.01 s⁻¹.

As to “full-length human vinculin, wild type (from UniProt P18206-2) T12”, the other: average unbinding time at 40 pN in experiment [5] turned out to be 20 s.

The values are drawn from article PMC10354202.
